Data published in the supplement of paper PMC9112550, “Optimization of the antimicrobial peptide Bac7 by deep mutational scanning” (BMC Biology, 2022).

Each sequence was assayed on Escherichia coli TOP10 (assay: shrunken log2 fold change of peptide-encoding DNA abundance (4.5 h post-induction vs induction); higher = less antimicrobial activity (less host growth inhibition)). Conditions: time post-induction: 4.5 h; library: site-saturation at positions 5, 18, 19, 20.
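Also: peptides expressed intracellularly from a pBAD plasmid library in pooled LB shake-flask culture, induced with 0.3% L-arabinose, DNA abundance read by NGS, three biological replicates, DESeq2 with apeglm shrinkage.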

| Sequence | shrunken log2 fold change |
| --- | --- |
| RRIRRRPPRLPRPRPRPFHDPRP | -0.307 |
| RRIRSRPPRLPRPRPRPVHMPRP | -0.322 |
| RRIRERPPRLPRPRPRPFMCPRP | -0.158 |
| RRIRMRPPRLPRPRPRPYSMPRP | -0.245 |
| RRIRARPPRLPRPRPRPACYPRP | 0.489 |
| RRIRIRPPRLPRPRPRPKKFPRP | -0.666 |
| RRIRRRPPRLPRPRPRPEGFPRP | 0.151 |
| RRIRIRPPRLPRPRPRPPVRPRP | 0.172 |
| RRIRVRPPRLPRPRPRPYSFPRP | -0.594 |
| RRIRTRPPRLPRPRPRPWIIPRP | -0.228 |
| RRIRIRPPRLPRPRPRPICAPRP | 0.0269 |
| RRIRARPPRLPRPRPRPNLIPRP | 1.17 |
| RRIRARPPRLPRPRPRPKPKPRP | 0.936 |
| RRIRCRPPRLPRPRPRPFDGPRP | -0.0927 |
| RRIRMRPPRLPRPRPRPHNEPRP | -0.356 |
| RRIRLRPPRLPRPRPRPDGPPRP | 0.0394 |
| RRIRYRPPRLPRPRPRPCVKPRP | -0.0312 |
| RRIRIRPPRLPRPRPRPCERPRP | -0.0509 |
| RRIRMRPPRLPRPRPRPPPAPRP | 2.14 |
| RRIRLRPPRLPRPRPRPWKIPRP | 0.095 |
| RRIRTRPPRLPRPRPRPSFWPRP | 0.277 |
| RRIRWRPPRLPRPRPRPNVTPRP | -0.22 |
| RRIRTRPPRLPRPRPRPKHKPRP | -0.185 |
| RRIRQRPPRLPRPRPRPAQPPRP | 0.187 |
| RRIRHRPPRLPRPRPRPGHRPRP | -0.0928 |

| Sequence | shrunken log2 fold change |
| --- | --- |
| RRIRQRPPRLPRPRPRPAMRPRP | 0.718 |
| RRIRQRPPRLPRPRPRPCYTPRP | -0.149 |
| RRIRCRPPRLPRPRPRPPYQPRP | -0.138 |
| RRIRCRPPRLPRPRPRPYLPPRP | -1.2 |
| RRIRSRPPRLPRPRPRPEFCPRP | 0.132 |
| RRIRWRPPRLPRPRPRPLFPPRP | 0.0582 |
| RRIRLRPPRLPRPRPRPRVDPRP | -0.0238 |
| RRIRFRPPRLPRPRPRPGFAPRP | 0.374 |
| RRIRWRPPRLPRPRPRPNVLPRP | -0.0626 |
| RRIRDRPPRLPRPRPRPQDWPRP | 0.324 |
| RRIRARPPRLPRPRPRPFTCPRP | 0.0835 |
| RRIRCRPPRLPRPRPRPLPPPRP | 0.733 |
| RRIRIRPPRLPRPRPRPKYFPRP | -0.288 |
| RRIRVRPPRLPRPRPRPMRAPRP | 0.71 |
| RRIRLRPPRLPRPRPRPTHPPRP | 0.0349 |
| RRIRTRPPRLPRPRPRPWSLPRP | -0.673 |
| RRIRTRPPRLPRPRPRPRDEPRP | 0.146 |
| RRIRPRPPRLPRPRPRPSQMPRP | 0.185 |
| RRIRERPPRLPRPRPRPMDAPRP | -0.0623 |
| RRIRHRPPRLPRPRPRPTCHPRP | -0.647 |
| RRIRARPPRLPRPRPRPWGWPRP | 0.649 |
| RRIRTRPPRLPRPRPRPQAGPRP | 0.107 |
| RRIRKRPPRLPRPRPRPIALPRP | 0.0143 |
| RRIRHRPPRLPRPRPRPEDKPRP | -0.0488 |
| RRIRKRPPRLPRPRPRPNLKPRP | 0.286 |

| Sequence | shrunken log2 fold change |
| --- | --- |
| RRIRMRPPRLPRPRPRPTWHPRP | 0.309 |
| RRIRLRPPRLPRPRPRPYTDPRP | -0.348 |
| RRIRKRPPRLPRPRPRPHQKPRP | -0.0675 |
| RRIRDRPPRLPRPRPRPPFQPRP | 0.193 |
| RRIRDRPPRLPRPRPRPFCDPRP | 0.167 |
| RRIRDRPPRLPRPRPRPLHRPRP | -0.375 |
| RRIRQRPPRLPRPRPRPIDHPRP | -0.0445 |
| RRIRRRPPRLPRPRPRPKKGPRP | 0.403 |
| RRIRFRPPRLPRPRPRPASWPRP | 0.026 |
| RRIRMRPPRLPRPRPRPDAEPRP | 4.37 |
| RRIRQRPPRLPRPRPRPVSEPRP | -0.202 |
| RRIRNRPPRLPRPRPRPELDPRP | 0.0611 |
| RRIRFRPPRLPRPRPRPAPAPRP | 0.674 |
| RRIRTRPPRLPRPRPRPMSTPRP | -0.0153 |
| RRIRERPPRLPRPRPRPCEAPRP | -0.041 |
| RRIRIRPPRLPRPRPRPIRTPRP | -0.288 |
| RRIRKRPPRLPRPRPRPPNDPRP | 0.426 |
| RRIRFRPPRLPRPRPRPECLPRP | -0.0562 |
| RRIRPRPPRLPRPRPRPQYIPRP | -0.457 |
| RRIRGRPPRLPRPRPRPFTYPRP | 0.0977 |
| RRIRTRPPRLPRPRPRPTIFPRP | -0.2 |
| RRIRGRPPRLPRPRPRPKLPPRP | 0.821 |
| RRIRTRPPRLPRPRPRPMWLPRP | -0.0194 |
| RRIRRRPPRLPRPRPRPIRAPRP | 0.266 |
| RRIRTRPPRLPRPRPRPNLCPRP | 0.108 |

| Sequence | shrunken log2 fold change |
| --- | --- |
| RRIRMRPPRLPRPRPRPFEWPRP | 0.174 |
| RRIRKRPPRLPRPRPRPVMIPRP | 0.0956 |
| RRIRDRPPRLPRPRPRPIKQPRP | -0.00204 |
| RRIRMRPPRLPRPRPRPINCPRP | -0.0244 |
| RRIRLRPPRLPRPRPRPRLHPRP | -0.237 |
| RRIRGRPPRLPRPRPRPYMRPRP | 0.0456 |
| RRIRDRPPRLPRPRPRPQVTPRP | 0.0425 |
| RRIRCRPPRLPRPRPRPLDFPRP | -0.175 |
| RRIRIRPPRLPRPRPRPGVNPRP | -0.319 |
| RRIRGRPPRLPRPRPRPHNEPRP | 0.264 |
| RRIRCRPPRLPRPRPRPDWMPRP | -0.11 |
| RRIRERPPRLPRPRPRPMWSPRP | -0.351 |
| RRIRFRPPRLPRPRPRPMVSPRP | -0.144 |
| RRIRMRPPRLPRPRPRPGFKPRP | 0.46 |
| RRIRQRPPRLPRPRPRPPDMPRP | -0.14 |
| RRIRDRPPRLPRPRPRPFWPPRP | 0.227 |
| RRIRYRPPRLPRPRPRPIRVPRP | -0.0013 |
| RRIRDRPPRLPRPRPRPVWHPRP | 0.0277 |
| RRIRCRPPRLPRPRPRPAYPPRP | -0.149 |
| RRIRSRPPRLPRPRPRPWKVPRP | -0.173 |
| RRIRFRPPRLPRPRPRPCIIPRP | -0.568 |
| RRIRIRPPRLPRPRPRPVDEPRP | -0.0203 |
| RRIRSRPPRLPRPRPRPRLYPRP | 0.114 |
| RRIRARPPRLPRPRPRPGGNPRP | 0.2 |
| RRIRLRPPRLPRPRPRPIEAPRP | -0.00911 |

| Sequence | shrunken log2 fold change |
| --- | --- |
| RRIRIRPPRLPRPRPRPNQMPRP | -0.173 |
| RRIRARPPRLPRPRPRPQDSPRP | -0.0459 |
| RRIRFRPPRLPRPRPRPNNPPRP | -0.625 |
| RRIRTRPPRLPRPRPRPMNQPRP | -0.941 |
| RRIRGRPPRLPRPRPRPMFGPRP | 0.39 |
| RRIRSRPPRLPRPRPRPNQMPRP | 0.0306 |
| RRIRNRPPRLPRPRPRPVCNPRP | -0.222 |
| RRIRSRPPRLPRPRPRPRTAPRP | 0.0119 |
| RRIRMRPPRLPRPRPRPRCHPRP | 0.133 |
| RRIRVRPPRLPRPRPRPTPDPRP | 0.182 |
| RRIRARPPRLPRPRPRPWFGPRP | 0.118 |
| RRIRMRPPRLPRPRPRPWCDPRP | 0.274 |
| RRIRFRPPRLPRPRPRPPWKPRP | 0.154 |
| RRIRIRPPRLPRPRPRPKLPPRP | 0.0199 |
| RRIRGRPPRLPRPRPRPKWHPRP | 0.542 |
| RRIRRRPPRLPRPRPRPGYLPRP | -0.12 |
| RRIRCRPPRLPRPRPRPDQVPRP | -0.183 |
| RRIRCRPPRLPRPRPRPFYEPRP | -0.741 |
| RRIRVRPPRLPRPRPRPVIIPRP | -0.182 |
| RRIRYRPPRLPRPRPRPVIHPRP | -0.0643 |
| RRIRGRPPRLPRPRPRPHWIPRP | -0.304 |
| RRIRERPPRLPRPRPRPHEFPRP | -0.0591 |
| RRIRKRPPRLPRPRPRPLELPRP | 0.134 |
| RRIRVRPPRLPRPRPRPTSKPRP | -0.144 |
| RRIRARPPRLPRPRPRPCFVPRP | -0.0979 |

| Sequence | shrunken log2 fold change |
| --- | --- |
| RRIRWRPPRLPRPRPRPQGFPRP | -0.0818 |
| RRIRYRPPRLPRPRPRPDTGPRP | -0.808 |
| RRIRNRPPRLPRPRPRPAWEPRP | 0.247 |
| RRIRFRPPRLPRPRPRPLMWPRP | 0.0935 |
| RRIRPRPPRLPRPRPRPPMFPRP | 0.0198 |
| RRIRYRPPRLPRPRPRPSVIPRP | -0.616 |
| RRIRERPPRLPRPRPRPSQTPRP | -0.067 |
| RRIRMRPPRLPRPRPRPNLHPRP | -0.0942 |
| RRIRLRPPRLPRPRPRPAACPRP | 0.267 |
| RRIRVRPPRLPRPRPRPKPVPRP | 0.42 |
| RRIRGRPPRLPRPRPRPMFTPRP | 0.522 |
| RRIRGRPPRLPRPRPRPCNYPRP | -0.11 |
| RRIRARPPRLPRPRPRPRDWPRP | 0.577 |
| RRIRERPPRLPRPRPRPRMQPRP | -0.0907 |
| RRIRMRPPRLPRPRPRPGLIPRP | 0.133 |
| RRIRERPPRLPRPRPRPSFAPRP | -0.192 |
| RRIRNRPPRLPRPRPRPVITPRP | -0.662 |
| RRIRTRPPRLPRPRPRPHWHPRP | -0.576 |
| RRIRDRPPRLPRPRPRPMDVPRP | -0.0846 |
| RRIRTRPPRLPRPRPRPFQFPRP | -0.131 |
| RRIRDRPPRLPRPRPRPYYTPRP | -0.817 |
| RRIRMRPPRLPRPRPRPRFQPRP | 0.268 |
| RRIRFRPPRLPRPRPRPNEWPRP | 0.0686 |
| RRIRIRPPRLPRPRPRPRTIPRP | -0.141 |
| RRIRDRPPRLPRPRPRPEGGPRP | 0.966 |
